Measured values from publication PMC8162480.

Molecular target: T1, HER2 epitope peptide (extracellular juxtamembrane region) (human, UniProt P04626)
T1 chain: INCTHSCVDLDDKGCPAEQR
Assay: bead-bound peptide pull-down, HPLC detection

B1: HB5 (FITC-labeled) (ssDNA)
DNA: AACCGCCCAAATCCCTAAGAGTCTGCACTTGTCATTTTGTATATGTATTTGGTTTTTGGCTCTCACAGACACACTACACACGCACA
Kd: 34.7 nM

B2: HB5-FITC-PL-Peptide probe (ssDNA)
DNA: B1 DNA
modifications: 5'-thiol-C6 conjugated via maleimide to …-PL-K(FITC)FK-Mal (PL = photocleavable o-nitrobenzyl linker)
Kd: 67.4 nM
